The target in test [1] is T1, recombinant human 4-1BB (Sino Biological Inc., catalog number 10041-H08H) (human, UniProt Q07011 24-186).
T1 construct: Bought protein coated on the ELISA plate
In words: ELISA, human 4-1BB coated (FIG. 8B; assay format inferred from the order of the methods). As for the experimental part: (§1) The detailed process is as follows: a 96-well high-adsorption ELISA plate (Costar, catalog number 42592) was coated with 1 μg/mL recombinant human PD-L1 (Sino Biological Inc., catalog number 100 84-H08H) or human 4-1BB (Sino Biological Inc., catalog number 10041-H08H) at 100 μL per well using carbonate buffer solution, pH=9.6 at 4° C. overnight. The plate was wash 5 times with PBST, and then blocked using PBST with 1% BSA 300 μL/well and incubated at 25° C. for 1 hour, and then washed 5 times with PBST. The heterodimeric antibody samples serially diluted in PBST with 1% BSA and the control were added, 100 μL per well and incubated at 25° C. for 1 hour. The plate was washed 5 times with PBST. The horseradish peroxidase-labeled anti-human IgG antibody (Chemicon, catalog number AP309P) diluted 1:10000 in PBST with 1% BSA was then added, 100 μL per well, and incubated at 25° C. for 1 hour. The plate was […] with PBST. The colorimetric substrate TMB was added, 100 μL/well, and developed at room temperature for 10 minutes. 1 M H₂SO₄, was added, 100 μL/well, to stop the development. The absorbance at 450 nm was read on a microplate reader.
(ELISA stands for enzyme-linked immunosorbent assay.)

Test [2] concerns the target T2, recombinant human PD-L1 (Sino Biological Inc., catalog number 100 84-H08H) (human, UniProt Q9NZQ7 19-239).
T2 construct: Bought protein coated on the ELISA plate
Nature of the test: ELISA, recombinant human PD-L1 coated (FIG. 8A). The protocol: as §1

T2 sequence (Q9NZQ7 19-239 limits assumed): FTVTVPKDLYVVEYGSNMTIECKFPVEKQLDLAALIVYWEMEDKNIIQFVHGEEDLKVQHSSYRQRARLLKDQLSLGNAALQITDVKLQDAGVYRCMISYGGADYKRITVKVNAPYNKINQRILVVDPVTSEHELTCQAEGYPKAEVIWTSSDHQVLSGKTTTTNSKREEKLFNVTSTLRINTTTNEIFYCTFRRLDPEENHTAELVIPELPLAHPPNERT

B1: anti-PD-L1/anti-4-1BB heterodimeric antibody BH3120h (bispecific antibody, human IgG1, kappa, N297A)
heavy 1: not shown
light 1: DIQMTQSPSSLSASVGDRVTITCKASQDVHTAVAWIQQKPGKSPKLLIYSASNRYTGVPSRFSGSGSGTDFTFTISSLQPEDIATYYCQQHYITPLTFGQGTKLEIKRTVAAPSVFIFPPSDEQLKSGTASVVCLLNNFYPREAKVQWKVDNALQSGNSQESVTEQDSKDSTYSLSSTLTLSKADYEKHKVYACEVTHQGLSSPVTKSFNRGEC
heavy 2: QVQLVQSGAEVKKPGSSVKVSCKASGYTFTSYWINWVRQAPGQGLEWMGNIYPSDSYTNYNQKFKDRVTITADKSTSTAYMELSSLRSEDTAVYYCARLYYGSSPFDYWGQGTTVTVSSASTKGPSVFPLAPSSKSTSGGTAALGCLVKDYFPEPVTVSWNSGALTSGVHTFPAVLQSSGLYSLSSVVTVPSSSLGTQTYICNVNHKPSNTKVDKKVEPKSCDKTHTCPPCPAPELLGGPSVFLFPPKPKDTLMISRTPEVTCVVVDVSHEDPEVKFNWYVDGVEVHNAKTKPREEQYASTYRVVSVLTVLHQDWLNGKEYKCKVSNKALPAPIEKTISKAKGQPREPQVYTEPPSRDELTKNQVSLTCLVKGFYPSDIAVEWESNGQPENNYKTTPPVLDSDGSFFLLSVLTVDKSRWQQGNVFSCSVMHEALHNHYTQKSLSLSPGK
light 2: not shown
notes: also called anti-PD-L1/anti-4-1BB bispecific antibody; anti-PD-L1/anti-4-1BB heterodimeric antibody molecule
Consider B1, for which the binding result in test [1] and in test [2] was “binds” each time.

Source of the values: patent publication US20240034801A1 (BEIJING HANMI PHARMACEUTICAL, published 2024).
